In experiment [1] the target is HLA-B*07:02. In words: IEDB peptide-MHC binding, purified MHC/competitive/radioactivity; filed as Kd, often an IC50 or EC50 that approximates it; ≥ and ≤ were set here for values at or beyond the usual limits of such assays.
Experiment [2] has as its target HLA-B*35:01. Described as above.
Experiment [3] has as its target HLA-B*51:01. Described as above.
Experiment [4] concerns the target HLA-B*53:01. The experiment is described as above.
The target in experiment [5] is HLA-B*54:01. The description is as above.
The target of experiment [6] is HLA-A*68:02. The experiment is described as above.
The target of experiment [7] is HLA-B*08:01. Described as above.
The target of experiment [8] is HLA-B*51:01. In words: IEDB peptide-MHC binding, purified MHC/competitive/fluorescence; filed as Kd, often an IC50 or EC50 that approximates it; ≥ and ≤ were set here for values at or beyond the usual limits of such assays. Conditions: source organism: Mycobacterium tuberculosis H37Ra.
The target of experiment [9] is HLA-A*11:01. As to the kind of experiment: IEDB peptide-MHC binding, purified MHC/competitive/radioactivity; filed as Kd, often an IC50 or EC50 that approximates it; ≥ and ≤ were set here for values at or beyond the usual limits of such assays. Conditions: source organism: Mammarenavirus machupoense.
For experiment [10], the target named is HLA-A*01:01. The experiment is described as above. Conditions: source organism: Dengue virus 3 Martinique/1243/1999.
Experiment [11] deals with HLA-B*15:01. The experiment is described as above. Conditions: source organism: Vaccinia virus WR.
Experiment [12] addresses HLA-A*02:03. The experiment is described as above. Conditions: source organism: Dengue virus 3 Martinique/1243/1999.
Experiment [13] has as its target HLA-A*02:06. Described as above.
The target of experiment [14] is HLA-A*32:01. Described as above. Conditions: source organism: Vaccinia virus WR.
Experiment [15] addresses HLA-A*02:01. The experiment is described as above. Conditions: source organism: Homo sapiens.
[16] abbreviates: source organism: Vaccinia virus WR.
[17] abbreviates: source organism: Dengue virus 3 Martinique/1243/1999.
Where [18] appears, read: source organism: Mammarenavirus juninense.
Where [19] appears, read: source organism: SARS coronavirus Tor2.
Setting [20] is: source organism: Mammarenavirus machupoense.
Where [21] appears, read: source organism: Triticum aestivum.
The mark [22] stands for this setting: source organism: Dengue virus 1 Brazil/97-11/1997.

pKd: −log10 of the molar value.

Consider DPVYISQFSY, for which the pKd (commonly the Kd on a negative log10 scale, so that one unit is a factor of ten) in [1] (setting [16]) is at most 4.16; in experiment [2] (setting [16]), 6.03; in [3] (setting [16]), at most 4.16; in experiment [4] (setting [16]) it was 4.98; in experiment [5] (setting [16]), at most 4.41.

Take LLQEENRQKL: the pKd in experiment [6] (source organism: Homo sapiens) is at most 4.22.

Consider IINKRKKTSL, for which the negative logarithm of the Kd (pKd) in experiment [7] (setting [17]) is 7.08.

In the case of MPGVLSYVV, the negative logarithm of the Kd (pKd) in [1] (setting [18]) is 5.99; in experiment [2] (setting [18]), 7.65; in experiment [3] (setting [18]) it was 6.68; in experiment [4] (setting [18]) it was 6.73; in experiment [5] (setting [18]), 9.29.

In the case of APSASAFFGM, the pKd in experiment [1] (setting [19]) is 6.91; in [2] (setting [19]), 5.67; in experiment [3] (setting [19]) it was 5.70; in experiment [4] (setting [19]), 5.39; in [5] (setting [19]), at most 4.37.

In the case of RDALDNLAVL, the negative-log Kd (pKd) in experiment [7] (source organism: Dengue virus 2 Jamaica/1409/1983) was 5.94.

For the sequence FPPTSFGPLV, the pKd in [1] (setting [19]) was 5.68; in experiment [2] (setting [19]) it was at most 4.61; in experiment [3] (setting [19]), 5.20; in experiment [4] (setting [19]), 5.31; in [5] (setting [19]), 5.90.

LPVPLFPGF had a pKd in [8] of 6.60.

As to MLNNSFYYM, the pKd in experiment [9] was 6.71; in experiment [5] (setting [20]), 5.12.

In the case of STANVSLAAI, the values for the pKd in [10] and in experiment [6] (setting [17]) were at most 4.32 and 8.67, respectively.

For LPTSITVPV, the pKd was 7.17 in experiment [1] (setting [20]); 8.45 in experiment [2] (setting [20]); 5.71 in experiment [3] (setting [20]); 7.14 in [4] (setting [20]); 8.40 in experiment [5] (setting [20]).

Take RSIRKFNTM: the pKd in [7] (setting [16]) was 7.77; in [11] it was 8.36.

ETQHGTTVV: the pKd in [6] (source organism: Dengue virus 4 Philippines/H241/1956) is 8.07.

Consider AKNPNRFVI, for which the negative logarithm of the Kd (pKd) was 4.92 in experiment [1] (source organism: Variola virus); at most 4.11 in experiment [2] (source organism: Variola virus); at most 4.11 in [3] (source organism: Variola virus); at most 4.11 in experiment [4] (source organism: Variola virus); at most 4.11 in experiment [5] (source organism: Variola virus).

As for SAYTALFSGV, the negative-log Kd (pKd) was 8.15 in experiment [12], 8.94 in [13] (setting [17]) and 8.04 in experiment [6] (setting [17]).

As to SLNALFVML, the negative-log Kd (pKd) in experiment [14] is 5.91; in experiment [7] (setting [16]), 5.90.

As for FPNITNLCPF, the pKd in experiment [1] (setting [19]) was 7.25; in experiment [2] (setting [19]), 8.78; in experiment [3] (setting [19]), 8.20; in [4] (setting [19]), 9.11; in experiment [5] (setting [19]), 6.35.

For the sequence RPLMESELVI, the negative logarithm of the Kd (pKd) in experiment [1] (setting [19]) was 6.18; in experiment [2] (setting [19]), 6.40; in [3] (setting [19]) it was 7.48; in experiment [4] (setting [19]) it was 6.66; in experiment [5] (setting [19]), at most 4.34.

Turning to QPFPSQQPYL, the pKd was 4.76 in experiment [1] (setting [21]); 6.36 in [2] (setting [21]); 7.99 in [3] (setting [21]); 5.07 in [4] (setting [21]); 4.97 in [5] (setting [21]).

With FIAFLRFLAI, the negative logarithm of the Kd (pKd) in experiment [13] (setting [22]) was 7.83; in [6] (setting [22]) it was 6.38; in experiment [4] (setting [22]), 5.88.

In the case of FPLNSKVKVI, the negative logarithm of the Kd (pKd) in [1] (setting [19]) is at most 4.48; in experiment [2] (setting [19]), at most 4.53; in [3] (setting [19]) it was 5.33; in experiment [4] (setting [19]) it was 5.97; in experiment [5] (setting [19]), 6.03.

ETWNRQDLLV: the pKd in [6] (setting [22]) was 7.77.

Consider ELESQISEL, for which the results for the negative logarithm of the Kd (pKd) in experiment [15] and in [6] (source organism: Homo sapiens) were at most 4.11 and at most 4.22, respectively.

For the origin of these results see the Immune Epitope Database (IEDB).
